Target: T1, human adenosine deaminase 2 (ADA2) (Homo sapiens, UniProt Q9NZK5)
T1 construct: adenosine deaminase 2 (ADA2), human, recombinant, produced in S2 insect cells; also called hADA2; recombinant ADA2
Experiment: BLI; apparent dissociation constant; which partner was immobilised and the conditions are not told
Conditions: both partners purified

T1 sequence (Q9NZK5 30-511): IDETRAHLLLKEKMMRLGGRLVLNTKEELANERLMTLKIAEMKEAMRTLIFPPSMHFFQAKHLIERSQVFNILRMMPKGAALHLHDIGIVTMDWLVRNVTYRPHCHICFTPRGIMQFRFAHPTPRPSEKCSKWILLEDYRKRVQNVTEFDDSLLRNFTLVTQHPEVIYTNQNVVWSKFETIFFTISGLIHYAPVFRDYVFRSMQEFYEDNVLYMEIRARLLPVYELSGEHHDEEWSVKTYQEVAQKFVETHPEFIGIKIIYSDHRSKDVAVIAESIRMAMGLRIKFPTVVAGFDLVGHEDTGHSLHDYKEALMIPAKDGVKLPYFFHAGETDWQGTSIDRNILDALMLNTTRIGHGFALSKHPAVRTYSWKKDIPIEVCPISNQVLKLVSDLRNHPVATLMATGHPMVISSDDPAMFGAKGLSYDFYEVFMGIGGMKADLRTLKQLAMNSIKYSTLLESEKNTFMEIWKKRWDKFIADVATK

B1: H11 anti-ADA2 scFv-AP (single-chain antibody fused with bacterial alkaline phosphatase) (scFv, V domains shown)
VH: EVQLLESGGGLVQPGGSLRLSCAASGFTFSSYSMHWVRQAPGKGLEWVSSIWGVNGETDYADSVKGRFTISRDNSKNTLYLQMNSLRAEDTAVYYCAADWSLDYWGQGTLVTVSS
VL: EIVLTQSPGTLSLSPGERATLSCRASQSVSSSYLAWYQQKPGQAPRLLIYGASSRATGVPDRFSGSGSGTDFTLTISRLEPEDFAVYYCQQSSSYPWTFGQGTKVEIK
notes: The clone name H11 appears only in the ELISA methods; also called H11 scFv-AP; sc-anti-ADA2 alkaline phosphatase fusion protein; source: E. coli XL1-Blue (pAK600H vector), purified (Nickel Sepharose HiTrap / Ni-NTA Chelating Sepharose)
  Kd: < 10 nM

Reference: PMC12390807, “Developing and validating anti-ADA2 single-chain antibodies coupled to alkaline phosphatase for diagnosing pleural tuberculosis” (Frontiers in Immunology, 2025)
